T1: huIL-15Rβ-6His (human, UniProt P14784 27-240, limits assumed)
T1 construct: Coated on the ELISA plate; also called hull-15Rβ-6His; IL-15Rβ subunit
T1 sequence: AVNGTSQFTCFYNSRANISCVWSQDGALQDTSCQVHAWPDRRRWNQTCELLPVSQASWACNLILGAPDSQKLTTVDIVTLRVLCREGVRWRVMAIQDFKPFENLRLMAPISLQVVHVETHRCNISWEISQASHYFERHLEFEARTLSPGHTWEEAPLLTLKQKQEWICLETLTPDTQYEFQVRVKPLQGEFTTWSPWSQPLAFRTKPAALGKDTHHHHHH


Assays:
huIL-15Rβ-6His [1] = target: T1, huIL-15Rβ-6His; experiment: ELISA, huIL-15Rβ-6His coated on plate, anti-human IgG Fc-HRP detection
Procedure: (§1) The binding activity was tested in ELISA assay. Briefly, Nunc Maxisorp (ThermoFisher) plates were coated overnight at 4° C. with hull-15Rβ-6His at 1 ug/well (100 μl/well) in bicarbonate buffer pH 9.4 (ThermoFisher). After washing 3 times with PBS/0.05% Tween20, plates were incubated with SuperBlock (300 μl/well) at room temperature for 2 hrs. to block nonspecific binding. After washing, IL-15 compounds each at 3-fold serial dilutions with blocking buffer were added to the plates (100 μl/well) and incubated at room temperature for 1 hr. After washing, the Fc fusions were detected by 1 hr. incubation at room temperature with a goat anti-human IgG Fc secondary antibody conjugated with horseradish peroxidase (HRP) at 1:5000 dilution in blocking buffer (ThermoFisher) (100 μl/well). After washing, TMB substrate (ThermoFisher) was added (100 μl/well). Plates were sealed and incubated 5-20 min at room temperature in dark. Reaction was stopped by adding 2N sulfuric acid (Ricca Chemical) (50 μL/well) and absorbance was read at 450-590 nm.

huIL-15Rβ-6His [2] = target: T1, huIL-15Rβ-6His; experiment: ELISA binding EC50 relative to wild type P-0153
Procedure: as §1

huIL-15Rβ-6His [3] = target: T1, huIL-15Rβ-6His; experiment: ELISA binding to IL-15Rβ, relative to wild type (repeats Table 3)
Procedure: as §1

huIL-15Rβ-6His [4] = target: T1, huIL-15Rβ-6His; experiment: ELISA binding EC50 relative to wild type (3.9 nM)
Procedure: as §1

Row | EC50 (huIL-15Rβ-6His [1]) | Fold change (huIL-15Rβ-6His [2]) | Fold change in binding EC50 (huIL-15Rβ-6His [3]) | Fold change (huIL-15Rβ-6His [4]) | Binder
1 | 23.1 nM | 36 fold |  |  | P-0178, IL-15/IL-15Rα heterodimeric Fc fusion, IL-15i3 (… insertion after N95) (Fc fusion) chain 1: DKTHTCPPCPAPEAAGAPSVFLFPPKPKDTLMISRTPEVTCVVVDVSHEDPEVKFNWYVDGVEVHNAKTKPREEQYNSTYRVVSVLTVLHQDWLNGKEYKCKVSNKALPAPIEKTISKAKGQPREPQVYTLPPCREEMTKNQVSLSCAVKGFYPSDIAVEWESNGQPENNYKTTPPVLDSDGSFFLVSKLTVDKSRWQQGNVFSCSVMHEALHNHYTQKSLSLSPGEPKSSDKTHTSPPSPNWVNVISDLKKIEDLIQSMHIDATLYTESDVHPSCKVTAMKCFLLELQVISLESGDASIHDTVENLIILANNSLSSNGNVTESGCKECEELEEKNGSSGSSGGSIKEFLQSFVHIVQMFINTS chain 2: DKTHTCPPCPAPEAAGAPSVFLFPPKPKDTLMISRTPEVTCVVVDVSHEDPEVKFNWYVDGVEVHNAKTKPREEQYNSTYRVVSVLTVLHQDWLNGKEYKCKVSNKALPAPIEKTISKAKGQPREPQVCTLPPSREEMTKNQVSLWCLVKGFYPSDIAVEWESNGQPENNYKTTPPVLDSDGSFFLYSKLTVDKSRWQQGNVFSCSVMHEALHNHYTQKSLSLSPGEPKSSDKTHTSPPSPITCPPPMSVEHADIWVKSYSLYSRERYICNSGFKRKAGTSSLTECVLNKATNVAHWTTPSLKCIRDPALVHQRPAPP
2 | 5.57 nM |  | 1.4 fold | 1.4 fold | P-0181, IL-15/IL-15Rα heterodimeric Fc fusion, IL-15m3 (Q108S, D30T, V31Y, H31E) (Fc fusion) chain 1: DKTHTCPPCPAPEAAGAPSVFLFPPKPKDTLMISRTPEVTCVVVDVSHEDPEVKFNWYVDGVEVHNAKTKPREEQYNSTYRVVSVLTVLHQDWLNGKEYKCKVSNKALPAPIEKTISKAKGQPREPQVYTLPPCREEMTKNQVSLSCAVKGFYPSDIAVEWESNGQPENNYKTTPPVLDSDGSFFLVSKLTVDKSRWQQGNVFSCSVMHEALHNHYTQKSLSLSPGEPKSSDKTHTSPPSPNWVNVISDLKKIEDLIQSMHIDATLYTESTYEPSCKVTAMKCFLLELQVISLESGDASIHDTVENLIILANNSLSSNGNVTESGCKECEELEEKNIKEFLQSFVHIVSMFINTS chain 2: DKTHTCPPCPAPEAAGAPSVFLFPPKPKDTLMISRTPEVTCVVVDVSHEDPEVKFNWYVDGVEVHNAKTKPREEQYNSTYRVVSVLTVLHQDWLNGKEYKCKVSNKALPAPIEKTISKAKGQPREPQVCTLPPSREEMTKNQVSLWCLVKGFYPSDIAVEWESNGQPENNYKTTPPVLDSDGSFFLYSKLTVDKSRWQQGNVFSCSVMHEALHNHYTQKSLSLSPGEPKSSDKTHTSPPSPITCPPPMSVEHADIWVKSYSLYSRERYICNSGFKRKAGTSSLTECVLNKATNVAHWTTPSLKCIRDPALVHQRPAPP

From patent publication US20250388641A1 (CUGENE, published 2025)
